We go through one substance from patent US20090214535A1.

The target in the experiment is monkey Mpl (on BaF3-monkey Mpl cells) (monkey).

hTPO (ligand): the EC50 (read off the curve) [B) BaF-monkey Mpl] was determined as 0.01 nM.
